# Experimental data reported in US12037418B2, “Hydrogel-forming peptides, and methods of use thereof” (Nanyang Technological University, priority 2020, dated 2024).
# Key:
# [1] = Peptide gelation (incubation, OD 550 nm, inverted tube); assay type: physicochemical; conditions: for self-assembly behaviour observed over time / gel formation in water: DI water; for self-assembly behaviour observed over time: up to 40 h; for gel formation in water: C-terminus Val mutated
# Description: UV-Vis spectroscopy: The peptides were dissolved in DI water at the respective concentrations and 100 μL was aliquoted into each well of a 96-well microtiter plate, with a minimum of 3 wells per condition. UV-Vis absorbance measurements at 550 nm were recorded on a Tecan infinite M200 Pro microplate reader at intervals of 30 min for the first 16 hours and subsequently at increased time intervals.
# Peptide hydrogel (GV8): GV8 peptide was dissolved in DI water at the desired concentration (between 10 and 20 mM) and incubated at ambient temperature of 23° C. to 25° C. for at least 12 hours. For active agent encapsulation, GV8 hydrogels were prepared at concentrations of 20 mM to 50 mM with 1% Dimethylsulfoxide (DMSO) added per 10 mM of peptide in PBS with a pH range of 7.2 to 7.4 to form GV8 precursors, which gelate in a sealed environment under ambient temperature of 23° C. to 25° C. with a typical gelation time ranging from 5 h to 9 h (FIG. 1), depending on the concentration of the GV8 precursor. The GV8 precursors were prepared in various types of buffer solutions—such as DI water, Dulbecco's Modified Eagle's medium (DMEM), sodium acetate buffered solution with a pH range of 4 to 5, and/or buffered solutions with a pH ranging from pH 4 to 7.4.
# Peptide hydrogel (GI8): GI8 peptide was dissolved in DI water at the desired concentration (between 10 and 20 mM) and incubated at ambient temperature of 23° C. to 25° C. for at least 12 hours. GI8 hydrogels were prepared at concentrations of 20 mM to 50 mM with or without 1% Dimethylsulfoxide (DMSO) added per 10 mM of peptide in PBS with a pH range of 7.2 to 7.4 to form GI8 precursors, which gelate in a sealed environment under ambient temperature of 23° C. to 25° C. with a typical gelation time ranging from 2 h to 7 h (FIG. 1), depending on the concentration of the GI8 precursor. The GI8 precursors were prepared in various types of buffer solutions—such as DI water, Dulbecco's Modified Eagle's medium (DMEM), sodium acetate buffered solution with a pH range of 4 to 5, and/or buffered solutions with a pH ranging from pH 4 to 7.4. […]
# [2] = test system: topical puncture wounds; assay: In vivo wound healing assay, hydrogels applied to topical puncture wounds; parameters: species or system mice; conditions: especially at initial stages (0 d to 2 d), n=3
# Description: In vivo assay: To investigate the wound healing property of the hydrogels, 30 μL GV8 and GV8+ hydrogels loaded with 200 μg/mL ADMSC secretome were applied to topical puncture wounds on non-diabetic mice models, and monitored for a period of 2 d, 5 d and 7 d at various points in time. Representative wounds have been presented in FIG. 26, illustrating the healing of untreated (blank) and treated wounds over 7 d.
# [3] = in the presence of Mg2+; cited from earlier work
# [4] = Nanoindentation of GL8 beads; assay type: physicochemical
Substance,self-assembly behaviour observed over time [1],gel formation in water [1],also measured
Ac-GLYGGYGI-NH2 [GI8],remained in solution with some gel-like formation observed overtime,,"incubation time to hydrogel formation ([1]; 10 mM peptide in water, inverted tube test): 1 h"
Ac-GLYGGYGV-NH2 [GV8],,,effect on wound closure versus control wounds [2]: promoted and accelerated wound closure; minimal critical gelation concentration (cgc) ([1]; in water): 10 mM
E2(SL)6E2GRGDS,,,storage modulus (G′) [3]: about 480 Pa
"GA8: Ac-GLYGGYGX-NH2 (SEQ ID NO: 11) peptide, C-terminus Val residue mutated to Ala (Ac-GLYGGYGA-NH2)",,not able to form gels in water,
"GF8: Ac-GLYGGYGX-NH2 (SEQ ID NO: 11) peptide, C-terminus Val residue mutated to Phe (Ac-GLYGGYGF-NH2)",remained in solution with some gel-like formation observed overtime,not able to form gels in water,
"GK8: Ac-GLYGGYGX-NH2 (SEQ ID NO: 11) peptide, C-terminus Val residue mutated to Lys (Ac-GLYGGYGK-NH2)",,not able to form gels in water,
"GL8: Ac-GLYGGYGX-NH2 (SEQ ID NO: 11) peptide, C-terminus Val residue mutated to Leu (Ac-GLYGGYGL-NH2)",self-assembled into large (mm-size) and stiff beads,not able to form gels in water,"Young's modulus, dried ([4]; dried condition): 8.34 GPa; Young's modulus, hydrated ([4]; hydrated condition): 3.03 GPa"
"GS8: Ac-GLYGGYGX-NH2 (SEQ ID NO: 11) peptide, C-terminus Val residue mutated to Ser (Ac-GLYGGYGS-NH2)",,not able to form gels in water,
